This data set has as its system thrombin-cleavable lipopeptide conjugate (TCP-stearate).

In the case of thrombin, the “MALDI-TOF mass spectroscopy of TCP-stearate before and after exposure to thrombin (30 minutes, 250 nM)” value is “thrombin could efficiently cleave the conjugate, evidenced by the fact that after thrombin exposure very little of the TCP-stearate conjugate remains (peak at 1046 m/z), whereas 2 new degradation peaks appear (495 and 534 m/z)”.
